Reference: US20070190045A1, “Anti-CD3 and antigen-specific immunotherapy to treat autoimmunity” (priority 2004, published 2007)
Like-named read-outs stand apart in the source and are kept apart here.

How the values were obtained:
PBMC [1] = test: Induction of regulatory T cells in vitro with OKT3 then IL-10/IL-2; inhibition of PHA-stimulated PBMC proliferation; type: cell-based, human
Excerpt: See text in Example 4 for details of the experimental procedure. […] In the left panel of FIG. 10A, responder cells alone were stimulated with PHA and the percentage of proliferating cells was 67%. In the right panel of FIG. 10A, responder cells were stimulated with PHA in the presence of cells treated with anti-CD3 mAb/IL-10/IL-2, and the percentage of proliferating cells was 43%. The number of proliferating responder cells (i.e. diluted CFSE (carboxy-fluorescein diacetate, succinimidyl ester)) in the presence of the added cells is shown. […] In the left panel of FIG. 10B, responder cells alone were stimulated with PHA and the percentage of proliferating cells was 50%. In the right panel of FIG. 10B, responder cells were stimulated with PHA in the presence of IL-10/IL-2 cultured cells, and the percentage of proliferating cells was 54%.
3. Treatment with anti-CD3 mAb induces regulatory T cells in vitro: In order to obtain sufficient numbers of cells for studies of functional properties, anti-CD3 mAb has been utilized to expand regulatory T cells in vitro. PBMC were cultured for 10 days with OKT3 mAb and then CD4+ cells were isolated by sorting. They were then cultured for 19 days with IL-10 and IL-2. These cells were then added to cultures of PBMC from the same individual, stimulated with PHA (phytohemagglutinin). […] The majority (94%) of the CD4+ cells that inhibit PBMC proliferation are CCR4+, 46% are CD62L+, and 93% are CD45RO+. About 5% of the cells are GITR+.

PBMC [2] = test: Inhibitory properties of cells grown in hOKT3γ1(Ala-Ala) and IL-10/IL-2 on PHA-stimulated PBMC; type: cell-based, human; details: 10 days with mAb, sorted, 2 weeks IL-10 and IL-2
Description: Other cells were cultured in IL-10/IL-2 (FIG. 11B), sorted, and then cultured for an addition 19 days in IL-10/IL-2. Both groups of cells were added to fresh PBMC. Uptake of 3H-thymidine was measured 72 hrs after the addition of PHA.
These cells were then cultured for an additional 2 weeks in IL-10 and IL-2 and then added to PBMC from the same donor and stimulated with PHA.

T cells = details: cited from earlier work
[3] = tested on: patients with new onset Type 1 diabetes; test: Phase I/II trial of hOKT3γ1(Ala-Ala) in new onset Type 1 diabetes: C-peptide response to MMTT; type: in vivo, human; details: patients with new onset T1D
[4] = tested on: patients with new onset Type 1 diabetes; test: Side effects of hOKT3γ1(Ala-Ala) in the Phase I/II trial (WHO Criteria); type: in vivo, human
Excerpt: The dosing regimen was modified from a 14-day to a 12-day course after treatment of the first 12 patients.

CD4+IL-10+ T cells = test: Induction of CD4+IL-10+ cells in vivo in treated patients (intracellular cytokine staining); design: species or system human
Excerpt: Cells were isolated from patients after treatment with the mAb and stained for intracytoplasmic IL-10 and IFN-γ without further activation ex vivo. IL-10+CD4+ cells were identified in 5/6 patients within 1 week after the last dose of mAb.
2. […] PBMC were harvested and frozen from a patient treated with hOKT3γ1(Ala-Ala) at the conclusion of mAb treatment. These cells, as well as those harvested before mAb treatment were thawed and stained for intracellular cytokines, IL-10 and IFN-γ. Markers were placed around surface molecules CD4 and CD3. Cells harvested from patients after anti-CD3 mAb treatment were producing IL-10 in vivo. […] These induced cells were IFN-γ negative, predominantly CD45RO+, and generally CCR4+. Thirteen percent of these cells produced TGF-β by surface staining.

NOD mice = details: cited from earlier work
[5] = after OKT3 10 days, IL-10/IL-2 19 days
[6] = Phase I/II trial, 12 or 14-day regimen

## OKT3 mAb: murine anti-CD3 mAb; in FIG. 10 cells cultured with it, then with IL-10 and IL-2
PBMC [1]; PHA stimulation in presence of added cultured cells, responder cells alone 67% (FIG. 10A) or 50% (FIG. 10B)
  percentage of proliferating responder cells: 43%
PBMC [1]; [5]
  inhibitory CD4+ cells that are CCR4+: 94%
  inhibitory CD4+ cells that are CD45RO+: 93%
  inhibitory CD4+ cells that are CD62L+: 46%
  inhibitory CD4+ cells that are GITR+: About 5%
PBMC [1]; cells added at ratio 1:5
  effect of added cultured cells on proliferation of PHA-stimulated CD4+ T cells/PBMC: inhibited proliferation

## hOKT3γ1(Ala-Ala): humanized anti-CD3 mAb with the same CDR region as OKT3 and a mutation in the Fc portion to reduce FcR binding
PBMC [2]
  effect of CCR4+ cells from cultures on proliferation of PHA-stimulated PBMC: inhibited proliferation
T cells; compared with OKT3, Herold et al. 2003
  cytokine production after activation signal to T cells: relatively greater production of IL-10 instead of IFN-γ
T cells; in vitro or in vivo, Xu et al. 2000
  T cell activation compared with OKT3: does not cause the same T cell activation
[3]
  duration of functional immunologic tolerance after treatment: at least 1 year
[4]; [6]
  Arthralgia, Mild: 8%
  Arthralgia, Moderate: 0
  Arthralgia, Severe: 0
  Diarrhea, Mild: 0
  Diarrhea, Moderate: 0
  Diarrhea, Severe: 0
  Dyspnea, Mild: 8%
  Dyspnea, Moderate: 0
  Dyspnea, Severe: 0
  Fever, Mild: 17%
  Fever, Moderate: 58%
  Fever, Severe: 0
  Headache, Mild: 33%
  Headache, Moderate: 0
  Headache, Severe: 0
  Hypotension, Mild: 0
  Hypotension, Moderate: 0
  Hypotension, Severe: 0
  Myalgia, Mild: 17%
  Myalgia, Moderate: 0
  Myalgia, Severe: 0
  Nausea, Mild: 8%
  Nausea, Moderate: 0
  Nausea, Severe: 0
  Rash, Mild: 58%
  Rash, Moderate: 25%
  Rash, Severe: 0
  Vomiting, Mild: 8%
  Vomiting, Moderate: 0
  Vomiting, Severe: 0
[4]; data from patients with T1DM
  tolerability: well tolerated
CD4+IL-10+ T cells; PBMC at conclusion of mAb treatment
  induced CD4+IL-10+ cells producing TGF-β by surface staining: Thirteen
CD4+IL-10+ T cells; within 1 week after the last dose of mAb
  patients in whom IL-10+CD4+ cells were identified: 5/6

## insulin B9-23 peptide: peptide comprising amino acids 9-23 of the insulin B chain (SHLVEALYLVCGERG)
NOD mice; mouse, in vivo
  anaphylaxis: anaphylaxis
NOD mice; reports in NOD mice (Liu et al. 2002; Pedotti et al. 2003), listed as insulin peptide
  anaphylaxis: fatal anaphylactic reactions

## rhGAD65: human GAD 65 protein, obtained from Diamyd
NOD mice; reports in NOD mice (Liu et al. 2002; Pedotti et al. 2003)
  anaphylaxis: fatal anaphylactic reactions
